For assay [1], the target named is T1, EDIII-DV2 (Dengue virus serotype 2 (DV2), UniProt P14337 581-673).
T1 construct: also called EDIII of DV2; EDIII-DVII
As to the kind of experiment: SPR. A general note: In SPR one partner is held on a chip, and binding of the other changes the refractive index at the surface.

Assay [2] addresses T2, EDIII-DV1 (Dengue virus serotype 1 (DV1), UniProt P17763 581-673).
T2 construct: also called EDIII of DV1; EDIII-DVI
The assay can be described thus: SPR.

The target of assay [3] is T3, EDIII-DV3 (Dengue virus serotype 3 (DV3), UniProt Q6YMS3 579-671).
T3 construct: also called EDIII of DV3; EDIII-DVIII
The assay can be described thus: SPR.

In assay [4] the target is DV3 (Dengue virus serotype 3, virus used in FRNT) (Dengue virus serotype 3 (DV3)). The assay can be described thus: cell-based or functional assay.
The target of assay [5] is DV2 (Dengue virus serotype 2, virus used in FRNT) (Dengue virus serotype 2 (DV2)). As to the kind of experiment: cell-based or functional assay.
For assay [6], the target named is DV1 (Dengue virus serotype 1, virus used in FRNT) (Dengue virus serotype 1 (DV1)). As to the kind of experiment: cell-based or functional assay.
The target of assay [7] is T1, EDIII-DV2.
Assay [8] addresses T2, EDIII-DV1.
In assay [9] the target is T3, EDIII-DV3.
For assay [10], the target named is T1, EDIII-DV2. As to the kind of experiment: competition ELISA. A general note: In an ELISA, binding on a coated surface is turned into a signal by an enzyme label.
In assay [11] the target is T2, EDIII-DV1. As to the kind of experiment: competition ELISA.
In assay [12] the target is T3, EDIII-DV3. As to the kind of experiment: competition ELISA.
Assay [13] addresses T1, EDIII-DV2. As to the kind of experiment: SPR. The source holds these as a separate data set.
Assay [14] concerns the target T2, EDIII-DV1. The assay can be described thus: SPR. This is another data set of the same source.
In assay [15] the target is T3, EDIII-DV3. The assay can be described thus: SPR. This is another data set of the same source.
Assay [16] has as its target T4, EDIII-DV4 (Dengue virus serotype 4 (DV4), UniProt P09866 580-672).
T4 construct: also called EDIII of DV4; DV4 EDIII

The target of assay [17] is T4, EDIII-DV4. The assay can be described thus: competition ELISA.
Assay [18] addresses T4, EDIII-DV4. As to the kind of experiment: calculated from KD, relative to 4E11 WT.
For assay [19], the target named is T4, EDIII-DV4. As to the kind of experiment: calculated from KD, ΔG = RTln(KD) at 25° C.

Residue numbers refer to the chain shown, from its start. Names and notes keep the numbering of the source. Like-named read-outs stand apart in the source and are kept apart here.

B1: 4E11 WT (antibody, V domains shown)
VH: VKLLEQSGAELVKPGASVRLSCTASGFNIKDTYMSWVKQRPEQGLEWIGRIDPANGDTKYDPKFQGKATITADTSSNTAYLHLSSLTSGDTAVYYCSRGWEGFAYWGQGTLVTVSA
VL: ELVMTQTPASLAVSLGQRATISCRASENVDRYGNSFMHWYQQKAGQPPKLLIYRASNLESGIPARFSGSGSRTDFTLTINPVEADDVATYFCQRSNEVPWTFGGGTKLEIKR
notes: also called wt 4E11; mAb 4E11
In the case of B1, the kon (commonly the rate constant with which the complex forms) was determined as 1.98e+06 M⁻¹ s⁻¹ with EDIII-DV2 [1], 1.11e+06 M⁻¹ s⁻¹ in the assay with EDIII-DV1 [2] and 1.34e+06 M⁻¹ s⁻¹ with EDIII-DV3 [3]. Moreover, the results for the off-rate (koff) with EDIII-DV1 [2] and in the assay with EDIII-DV3 [3] were 0.000551 s⁻¹ and 0.0102 s⁻¹, respectively. The figures for the “IC50 (read off the curve): neutralisation, relative infectivity against [4E11]” value in [4], in assay [5] and in assay [6] were approximately 0.5 µg/mL, approximately 0.03 µg/mL and approximately 0.06 µg/mL, respectively. Besides, the Kd (as a rule, the concentration at which binding is half-saturated) with EDIII-DV2 [7] came out at 5.2 nM; with EDIII-DV1 [8], 0.328 nM; with EDIII-DV3 [9], 21.8 nM; with EDIII-DV2 [10], 5.2 nM; in the assay with EDIII-DV1 [11], 0.328 nM; with EDIII-DV3 [12], 21.8 nM. Moreover, the results for the dissociation constant Kd in the assay with EDIII-DV2 [13], with EDIII-DV1 [14] and with EDIII-DV3 [15] were 6.2 nM, 0.5 nM and 7.58 nM, respectively.

B2: 4E11 VH-A55E (antibody, V domains shown)
VH: B1 VH with A54E
VL: B1 VL
Regarding B2, binding with EDIII-DV4 [16] was put at a Kd of 4440 nM. Moreover, the “fold affinity enhancement relative to 4E11 WT” value with EDIII-DV4 [17] is 9.2 fold. Besides, the “ΔΔG (ΔGmutant - ΔGWT)” value with EDIII-DV4 [18] is -1.31 kcal/mol. Moreover, in the assay with EDIII-DV4 [19], the ΔG was -7.29 kcal/mol.

(Values after patent US20200207841A1 (MIT, published 2020).)
